The values that follow come from the DeepSol protein solubility set.

This data set in a line: soluble on expression in E. coli; label from the status in PepcDB or PDB records.
For “MMKKIKILSLLVCLIALFTACHDEEDKTNYGSRTVLVYIAGDNSLSRFASEDLNEMIEGMQSVDDNHNNLLVYMDKGSNPKLIRLRKDKDVVVQDVIATYDAQNSVDVDVMKNVFTTAFSHYPADSYGVVFWSHGDGWLPYNNPSTRWWGQDTGNGDNRMNIPDLNEALSVAPHFDFILFDACYMQSVEVVYQLRNRADYFIGSPTEIPGPGAPYEVVVPALFAVNSPAVSIAENYYSVYAKKYNSTGAGISNENWTGGVSISVIKSSELSALAAATRDVLQTAVSMQQSHNIDISSILCYDPLRENNYHDLMGLMQSIQGNSQAFNHYKEMYKNAVIWKNTTDNNYCTYSSGYGKMVSMDGFEGVSTYILRENNSSQEKYYRQFVEWYSAADWDSVDWLEHHHHHH”, the “soluble on expression in E. coli” value is reported as “not soluble”. Then “GPGSMAGWASLGRSFRTPESRSEELVKKAIEGDALRIGSGDTVKHEEAVSPFAAKLFSNITGSQRYVLIAVRHTQPATVDESRKAAIFHHDIRQAGIAMGHDEILAVGHARLEPGEQFGWREPLMLFVQIILIDKTGFHPSTCSLDAMFRLVVEWAGSRIKRMQPPHCISHDGYFLGRSKVR”, with “not soluble”. Then “MSIYEYFVKLHRYLLWQTKKIRALERRLHALEARLREMEAQPRTSIERIEYKFDQLKVETLEGTLNIGIAPPGAGGTIEDFAVEPVKTVIPKPEPVLMRPIQEKVAAYLNGEASETLKRLEQQYGRRLDDTYRQFILQDIARQTDERIRFYLQEKANHGYVPSGDRDEAVENEIFQKVKADIEQSLDAFLKHLPSKEGST”, with “not soluble”; and “MEMNRRRSRGFMIAKLMPFCKAVKSPTPSQDLYNNVHYTSSTTTSYARQPDFNNYVTATTPLPPKVSFLLQPSLAPEGKDMEKKLNMMAEKLIGRGINGVDDCVDARAASYISSVRERFKADQYCEKLTTVISLDDEN”, with “soluble”.

For “MKTHYRTIVLSDIHLGTSSSKAKEVSNFLKNHTCDTLLLNGDIIDGWQLQKYGKWKKSHTRFFRRVIKMTEQNKTKVYYLRGNHDDFLDTILPLSFGNIHIDREYIHQGATGKMYYVVHGDVFDTVTSQLKWIAKLGDVGYTFLLWLNKHYNNYRVKRGLPYYSLSQAVKQKVKTAVSYISDFEMQLADLARSRKCDGVICGHIHQPAIKEYNGIEYLNSGDWVETLSALVETIHGEWKLIYYNQAFDEDRDSTEDADDPLFVFENMARFSKDVTIYKPRYSAFNGMNPADNLATNNQ”, the “soluble on expression in E. coli” value is on record as “not soluble”.

Take “MSIITRLFNNSDFEKLNQLCKLYDDLGYPTNENDLKKRLKKITNHDDYFLLLLIKENKIIGLSGMCKMMFYEKNAEYMRILAFVIHSEFRKKGYGKRLLADSEEFSKRLNCKAITLNSGNRNERLSAHKLYSDNGYVSNTSGFTKQL”: the “soluble on expression in E. coli” value was “soluble”. Then “MSLTESARATVSLGFTAELFPPGTHMCYIYNDERERLEIMSEFVRSGIESGEKIAYFVEEMSPQALRDYLAGLGIVPTEEAQLEIAPSVDVYCPEGRFSPDRMLGRLRSAYEDGIREGFNGVRLTGEMHWALRGLPGSERLAEYESRINLLVVDCPLTVICQYDANHFDGATLFKILNAHPMMIVRGQVVHNPYYLSPEEYFARYPVPNVEGHHHHHH”, with “soluble”; and “MDRFELLGPLPREGTTTVLEASAGTGKTFALAGLVTRYLAETAATLDEMLLITFNRAASRELRERVRGQIVEAVGALQGDAPPSGELVEHLLRGSDAERAQKRSRLRDALANFDAATIATTHEFCGSVLKSLGVAGDNAADVELKESLTDLVTEIVDDRYLANFGRQETDPELTYAEALALALAVVDDPCAQLRPPDPEPGSKAAVRLRFAAEVLEELERRKGRLRAQGFNDLLIRLATALEAADSPARDRMRERWRIVLVDEFQDTDPMQWRVLERAFSRHSALILIGDPKQAIYGFRGGDIHTYLKAAGTADARYTLGVNWRSDRALVESLQTVLRDATLGHADIVVRGTDAHHAGHRLASAPRPAPFRLRVVKRHTLGYDGTAHVPIEALRRHIPDDLAADVAALLASGATFAGRPVVAADIAVIVEHHKDARACRNALAEAGIPAIYTGDTDVFASQAAKDWLCLLEAFDAPQRSGLVRAAACTMFFGETAESLAAEGDALTDRVAGTLREWADHARHRGVAAVFQAAQLAGMGRRVLSQRGGERDLTDLAHIAQLLHEAAHRERLGLPGLRDWLRRQAKAGAGPPEHNRRLDSDAAAVQIMTVFVAKGLQFPIVYLPFAFNRNVRSDDILLYHDDGTRCLYIGGKDGGAQRRTVEGLNRVEAAHDNLRLTYVALTRAQSQVVAWWAPTFDEVNGGLSRLLRGRRPGQSQVPDRCTPRVTDEQAWAVFAQWEAAGGPSVEESVIGARSSLEKPVPVPGFEVRHFHRRIDTTWRRTSYSDLVRGSEAVTVTSEPAAGGRADEVEIAVVAAPGSGADLTSPLAALPSGASFGSLVHAVLETADPAAPDLAAELEAQVRRHAPWWTVDVDHAQLAPELARALLPMHDTPLGPAAAALTLRQIGVRDRLRELDFEMPLAGGDLRGRSPDVSLADVGELLASHLPGDDPLSPYADRLGSAGLGDQPLRGYLAGSIDVVLRLPGQRYLVVDYKTNHLGDTAADYGFERLTEAMLHSDYPLQALLYVVVLHRFLRWRQRDYAPARHLGGVLYLFVRGMCGAATPVTAGHPAGVFTWNPPTALVVALSDLLDRGRLQS”, with “soluble”; and “NAIKESARLPELSLWEKIKAYFFTTHHAEALECIFNLYHHQELNLTPVQVRGAYIKLRALASQGCKEQFIIESQEHADKLIIKDDNGENILSIEVECHPEAFGLAKEINKS”, with “soluble”. Take “MGSDKIHHHHHHMGNRRGFLKMSASLAAAPLIPESSAVSNELDIPVSNKRPHELARDEAHWRAVGRLYSIQEEIINLEHGYWGQMSIPVEQALARHTHRVNRELSWYARREYDRDFLKARAAVADALGVSVEELMLTRNATESFVNLITQYDELSSGNAILWADADYPEFKRMMSWLAESRQVRGTMLSLPAAGTDEDYIRIYREAFDALPDLKLMLLTHVSNQHGLVLPVREIAAIAKCRGIHVICDCAQSWGLLDFTLDDLNVDWAVFNLHKWIGSPVGVGALYMRHGTLVPVRPFPGEDSSDTDVANRVHLATSDFASFLTVPDALAFHRAIGGANKQARLNYLREAWVASLEGSSAVEVLGATGSKNASGMGAFRLRGQTSKVQVSALQTRLETEFRIFTVVRNDLASGACIRVTPQVFTPLEHVQALADAIVEISVTG”: the “soluble on expression in E. coli” value is “not soluble”.

Consider “MGSDKIHHHHHHMELQLMQWQVGDLPFFYRCQPQPSNAPYGLPDSLPFCLEFDSALGLIRQSPNTQVEAALERCYQHGSTISGMMDSGGIGQQYARDFLDFIAHHETDLTGKRVLEIGCGTGYLLSLLKQKGADVLGIEPGAQGQGGQQRHGVPIIDGFFPHPKAEGKFDLIVAYAVLEHIGEPQGFLEKIADSLAPDGVAYIAVPDCAPYIENGDISCLLHEHWSYFDASSLQRLLEVSGFAAAVQPAGFGGSIYARAVRVSHKTKPVNDEIDLAGNGFERFRSLALGAGQRLERFLAGPGQAGIYVPGRMINLLASLDSVDLAQVRLFDDNEALTGLYFPGMPNPIEDFSGLVERPPARLLIATKSFHFQIADRIEHASVEVPLLAWSDLFLVAAPK”, for which the “soluble on expression in E. coli” value is recorded as “not soluble”.

In the case of “MELPLDKIKLPPGFSISVWANVPDARTMTLGDKGTVFVGSKSAGNVYAITENAGKRQIRIIASKLKMPNGVAFHDGALYVSSVNRILRFDNIENTLDQPLPPRIITADYPKETYHGWRFIAFGPDGWLYVPVGSSCNVCETDLEHYALISRIRPDGSNYEVFAKGVRNTEGFDWHPVTKALWFTDISREWMGDNLPPDELNHASNQGLDFGFPYCHGKEVSDPKLGAKRDCNKFIPPAVELDPHVAPMGMRFYTGTMFPAEYHNGIFIAEHGSWNRSTKIGYRLEWVQLEVNEVARKEIFAEGWLQENEAWGRPVDVLVMPDGALLVSDDMAGVVYRISYDQPLEHHHHHH”, the “soluble on expression in E. coli” value is “soluble”. Regarding “MAILLNRPTLSRLPWFPLRPEDFTTLLQTADFRLRLLEAIAAATRRVYICALYLENEEAGQEMLDALYRAKQRNPQLDVRVMVDWHRAQRGRIGEDQSHCNASWYREEAARRELDIPIYGVPVQTRELFGVLHLKGFVIDDTVFYSGASLNNVYLHKLDKYRFDRYHLIRSPELADAMAGFMAEQFFNDPAVFRLDKPTPSTRSIRKEIRQLRDKLSHSQYRPGSAHAAPDELAISPIVGIGKGNRLNRAILDVIAGAQRRLFICTPYFNFPRAVVLEINRALRRGVEIDIVVGDKTANDFYIPPEQPFRVIGALPYLYEMNLRRFAKRQRQYLSREQLRVRLWKDGDNTYHLKGIWSDDRFILLTGNNLNPRAFRLDLENALLLRDPQGALRGQSAAEQQSILRHTTQLSHYRQLEDVRAYPEQIKKLLTRLSRVRIDRMLNLMLLEHHHHHH”, the “soluble on expression in E. coli” value is recorded as “soluble”. Then “MTIWEISEKADYIAQRHRRLQDQWHIYCNSLVQGITLSKARLHHAMSCAPDKELCFVLFEHFRIYVTLADGFNSHTIEYYVETKDGEDKQRIAQAQLSIDGMIDGKVNIRDREQVLEHYLEKIAGVYDSLYTAIENNVPVNLSQLVKGQSPAA”, with “soluble”. For “MASTIYTCKECGSDLNLNPNDLFPPDFYFEAGNKGTLSFAAVDAEKFRFEKEDKIMPFFETLNYWGIQRKRTKIKCTSCNHLIGYIYDDGPPLTGGIGQYGFGPSQVIPRAPRYRFKTKARQDGWQYGGLTAFWN”, the “soluble on expression in E. coli” value is “not soluble”.

As to “MSLERKLEIVKTKTENYTIKVDGVFIHSKYDPLREAETFAIKNIELIKNSRYIVIYGFGLGYHIEAVLRHMNEESMLAVFDADLEVIKEAKKQSLYKKLIKNPRLKCFFDYGDEFLKEFSKSLSLAKNIIIYRPSLKVLPEEFGHMARLLKGYELAKIEIEKHGKLAEYNYDMNLKKTHKKMQDFLSFYSFGCENIVLVSSGPSLDYNIESLKKVRDRVKIFCAGSAAEFLIKNHIIPDMICIIDPQDIVYTQLQSILNKNIPLCFLSSACSRVVSEWSGEKFLFFNDFNAARENNDVVVETGKSVATAILSIAVLKKPKKVIFIGQDLAYLNGKSHHDNYGSSQSSGIKKVRSVDGEYLETNEGFLYFKSWIEQKIMKSKDIEFINCSSGAEIKGTIASKLIDAIKEGHHHHHH”, the “soluble on expression in E. coli” value was “soluble”. The value for “MPVDKNLRDLEPGIHTDLEGRLTYGGYLRLDQLLSAQQPLSEPAHHDEMLFIIQAQTSELWLKLLAHELRAAIVHLQRDEVWQCRKVLARSKQVLRQLTEQWSVLETLTPSEYMGFRDVLGPSSGFQSLQYRYIEFLLGNKNPQMLQVFAYDPAGQARLREVLEAPSLYEEFLRYLARFGHAIPQQYQARDWTAAHVADDTLRPVFERIYENTDRYWREYSLCEDLVDVETQFQLWRFRHMRTVMRVIGFKRGTGGSSGVGFLQQALALTFFPELFDVRTSVGVDNRPPQGSADAGKRLEHHHHHH” was “soluble”; that for “DLYFQGGSGMQCEEKLEVFENGFKDEKFNVEVKFYGNDARKVLLAMIYELYLPEYGREYVYPFECAKEFWNIYLEGEEIQDEEFQLKPIKFTSEQVIKKLQEEIKKIKPPLEIKIEEAKIYKTKEGYLAVGNYFILDPRGRLFIFNKPSIANKILKYIWKW” was “soluble”; that for “MGSDKIHHHHHHMEKKVICQDIFWSCDGTSFVSVHNDFGIRQYLVPEESNTDKLNRNLLLPFTRFFRNQSIVSCAIDPFYTLYNENSDRLAGDRIVVGGKNFPLQLYSLMDGQCILSYDTMNKINGEYETVYSVKIDVESRVYTGSCRNKVAIYDKSRRDAVWMNQSTKKASKGRQSIISCFEEQPMGGQALSRGSLLCGSYANEMFQVDCRHQRLERLNYTRTVAGGIVQILTSDNGRYVYVVRRNSDAISIYDRRNLQHELNVLRLPFRIHHNSAKLKAYIDTAYGLSMGTPQGTILNWGRDLVEFGGVPSHNSVEDPLITSIPPESEWRTNLDSTIPATVVKNCPGDPELFALSHGGTISLCRFGG” was “not soluble”.
